Test results reported in PMC3589492, “Intersubunit Ionic Interactions Stabilize the Nucleoside Diphosphate Kinase of Mycobacterium tuberculosis” (PLoS ONE, 2013).

Biological target: the molecule itself
Experiment: SEC; Superose 12 column, 50 mM Hepes pH 7.4, 150 mM sodium chloride, 0.4 mL/min, calibrated with molecular weight markers

B1: D93N mutant of the nucleoside diphosphate kinase of Mycobacterium tuberculosis (enzyme)
chain: MTERTLVLIKPDGIERQLIGEIISRIERKGLTIAALQLRTVSAELASQHYAEHEGKPFFGSLLEFITSGPVVAAIVEGTRAIAAVRQLAGGTNPVQAAAPGTIRGDFALETQFNLVHGSDSAESAQREIALWFPGA
notes: No tag is mentioned; also called D93N Mt-NDPK
With B1 the “stoichiometry N” value was 6.
